Test results taken from patent US20140050720A1, “ULTRALONG COMPLEMENTARITY DETERMINING REGIONS AND USES THEREOF” (THE SCRIPPS RESEARCH INSTITUTE, priority 2012, published 2014).
Entries after “also recorded” stand apart in the source; their conditions may differ.

Tests used:
Mouse NFS-60 cells = test: Proliferation assay on mouse NFS-60 cells (AlamarBlue); type: cell-based; details: 72 hours
Description: Mouse NFS-60 cells were obtained from American Type Culture Collection (ATCC), VA, and cultured in RPMI-1640 medium supplemented with 10% fetal bovine serum (FBS), 0.05 mM 2-mercapoethanol and 62 ng/ml human macrophage colony stimulating factor (M-CSF). For proliferation assay, mouse NFS-60 cells were washed three times with RPMI-1640 medium and resuspended in RPMI-1640 medium with 10% FBS and 0.05 mM 2-mercapoethanol at a density of 1.5×10^5 cells/ml. In 96-well plates, 100 μl of cell suspension was added into each well, followed by the addition of varied concentrations of bGCSF, BLV1H12 antibody, and the immunoglobulin constructs described herein, Equal volume of PBS buffer was added into the control wells. The plates were incubated at 37° C. in a 5% CO2 incubator for 72 hours. Cells were then treated with AlamarBlue (Invitrogen) ( 1/10 volume of cell suspension) for 4 hours at 37° C. Fluorescence at 595 nm for each well was read to indicate the cell viability.

Human mPB CD34+ cells = test: Proliferative activity on human granulocyte progenitors (flow cytometry); type: cell-based; details: 7 days
Description: Human mPB CD34^+ cells were purchased from AllCells. Cells were resuspended in HSC expansion medium (StemSpan SFEM, StemCell Technologies) supplemented with 1× antibiotics and the following recombinant human cytokines thrombopoietin, IL6, Flt3 ligand, and stem cell factor (100 ng/mL, R & D Systems), then plated in 96-well plates (1000 cells per well), with varied concentrations of BLV1H12-bGCSF fusion antibodies. Cells were cultured for 7 days at 37° C. in a 5% CO2 incubator, then analyzed by flow cytometry to measure cell number and expression of CD45ra and CD41. Cells were stained in staining medium (HBSS supplemented with 2% FBS and 2 mM EDTA) at 4° C. for 1 h with PECy7 anti-CD45ra and eFluor 450 anti-CD41 (eBiosciences), then washed with staining medium and analyzed. Multicolor analysis for cell phenotyping was performed on a LSR II flow cytometer (Becton Dickinson). FIGS. 10A-10E and Tables 9-10 show the human granulocyte progenitor cell proliferative activities of the Ab-GCSF fusion antibodies.

[1] = Pharmacokinetics of BLV1H12-bGCSF fusion antibodies in mice; type: in vivo; details: BALB/c mice, 70 μg injected
Description: For PK study in mice, 70 μg of the immunoglobulin constructs described herein were injected into 3 BALB/c mice per group. Blood samples were drawn from time 0 to 14 days with extended intervals and analyzed by ELISA using anti-human IgG Fc antibody with horseradish peroxidase (HRP) labeled (KPL) and anti-6×His antibody with HRP labeled (Clontech). Data were normalized by taking maximal concentration at the first time point (30 min).

mice neutrophils = test: Neutrophils counts in mice; type: in vivo; details: mice blood, 10th day post-injection, neutrophils among white blood cells
Description: On the 10th day after injection of BLV1H12-bGCSF fusion antibodies into mice for PK study, blood samples were drawn from the mice and stained using the Diff Quick Staining Kit (Thermo Fisher Scientific, IL). Neutrophils and white blood cells were counted under microscope and the percentages of neutrophils were analyzed. FIGS. 12A-12B and Table 12 show proliferative activities of BLV1H12-bGCSF fusion antibodies on mice neutrophils that are blood stained and counted at the 10th day post-injection.

CXCR1-U2OS = target: T1, CXCR1-U2OS (Homo sapiens, UniProt P25024); test: Flow cytometry binding to CXCR1 expressing cells
T1 construct: host or cells: U2OS-derived CXCR1 cell line, purchased
T1 sequence (P25024 1-350): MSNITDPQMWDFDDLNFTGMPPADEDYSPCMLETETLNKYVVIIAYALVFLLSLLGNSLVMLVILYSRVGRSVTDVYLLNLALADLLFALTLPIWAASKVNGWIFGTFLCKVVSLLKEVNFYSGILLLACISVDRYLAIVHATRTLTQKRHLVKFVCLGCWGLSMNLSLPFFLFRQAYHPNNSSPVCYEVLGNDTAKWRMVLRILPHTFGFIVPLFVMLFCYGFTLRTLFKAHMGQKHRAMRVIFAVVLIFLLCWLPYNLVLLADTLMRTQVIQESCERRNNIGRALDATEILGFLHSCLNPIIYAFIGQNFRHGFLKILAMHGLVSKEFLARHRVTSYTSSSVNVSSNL
Description: (§1) Briefly, a cell line expressing functionally validated CXCR1 derived from U2OS cells was obtained from DiscoveRx and cultured per manufacturer's instructions (Cat#93-0226C3, DiscoveRx Corporation, Freemont, Calif.). The parental cell line U20S was obtained from ATCC and cultured under the same conditions as the CXCR1 cells. Cell culture supernatants from Example 2 above were then tested for binding to cells by flow cytometry. The adherent U20S or CXCR1-U20S cells were dissociated with Accutase (Innovative Cell Technologies, Inc., San Diego, Calif.), neutralized with an equal volume of media containing 10% serum, centrifuged at 1000 g, and resuspended in PBS with 2% BSA. Next, cells were dispensed into microtiter plates to achieve between 30,000 to 300,000 cells per well, centrifuged again, and resuspended in cell culture supernatant containing expressed IgG, or a dilution of IgG-containing cell culture supernatant. A fluorescent-conjugated anti-Human Fc antibody was used to detect binding of the expressedBLV1H12-IL8 fusion proteins to cells.

Parental U2OS = test: Flow cytometry binding to parental cells; details: cell culture supernatant containing expressed IgG, anti-Human Fc detection
Description: as §1

[2] = test system: NS2-3 non-structural proteins of BVDV; test: Immunocytometric analysis of HEK 293A cells transfected with BVDV antigens; type: binding; details: 10 μg/ml antibody
Description: Additionally, binding of the chimeric recombinant antibodies to BVDV antigens was evaluated by immunocytometric analysis of transfected human embryonic kidney (HEK) 293A cells (Invitrogen), as previously described (see, e.g., Njongmeta et al. (2012) Vaccine 30:1624-1635). Briefly, HEK 293A monolayers grown in 6-well tissue culture plates were transfected with 2 μg/well of plasmid (pcDNA3.3, Invitrogen) encoding BVDV antigens (N^pro, E2, or non-structural proteins NS2-3) using Lipofectamine 2000 reagent (Invitrogen), and incubated for 48 hr at 37° C. with 5% CO2. The monolayers were fixed with ice-cold 100% methanol for 10 minutes, rinsed with PBS, and after blocking for 1 hr with PBS containing 5% fetal bovine serum (blocking buffer), the monolayers were incubated at room temperature for 1 hr with 10 μg/ml of a mouse anti-FLAG M2-alkaline phosphatase (AP)-conjugate (Sigma) in blocking buffer or 10 μg/ml of the chimeric recombinant antibodies (H12 or B8). […] Following washes in blocking buffer, the AP activity in all the wells was detected using Fast Red AS-MX substrate (Sigma). […]

B1: hGCSF: human G-CSF (protein, UniProt P09919 31-207, looked up)
Granulocyte …: TPLGPASSLPQSFLLKCLEQVRKIQGDGAALQEKLVSECATYKLCHPEELVLLGHSLGIPWAPLSSCPSQALQLAGCLSQLHSGLFLYQGLLQALEGISPELGPTLDTLQLDVADFATTIWQQMEELGMAPALQPTQGAMPAFASAFQRRAGGVLVASHLQSFLEVSYRVLRHLAQP
F.I. (AlamarBlue fluorescence at 595 nm, cell viability) (Mouse NFS-60 cells; 0.09145 ng/mL): 1266.554
F.I. (AlamarBlue fluorescence at 595 nm, cell viability) (Mouse NFS-60 cells; 0.27435 ng/mL): 1478.287
F.I. (AlamarBlue fluorescence at 595 nm, cell viability) (Mouse NFS-60 cells; 0.82305 ng/mL): 1752.216
F.I. (AlamarBlue fluorescence at 595 nm, cell viability) (Mouse NFS-60 cells; 2.46914 ng/mL): 2224.028
F.I. (AlamarBlue fluorescence at 595 nm, cell viability) (Mouse NFS-60 cells; 7.40741 ng/mL): 2587.222
F.I. (AlamarBlue fluorescence at 595 nm, cell viability) (Mouse NFS-60 cells; 22.22222 ng/mL): 2751.249
F.I. (AlamarBlue fluorescence at 595 nm, cell viability) (Mouse NFS-60 cells; 66.66667 ng/mL): 2815.37
F.I. (AlamarBlue fluorescence at 595 nm, cell viability) (Mouse NFS-60 cells; 200 ng/mL): 2948.509
Number of CD45RA− CD41− (Human mPB CD34+ cells; 0.05081 ng/mL): 4175
Number of CD45RA− CD41− (Human mPB CD34+ cells; 0.15242 ng/mL): 3651
Number of CD45RA− CD41− (Human mPB CD34+ cells; 0.45725 ng/mL): 3671
Number of CD45RA− CD41− (Human mPB CD34+ cells; 1.37174 ng/mL): 4299
Number of CD45RA− CD41− (Human mPB CD34+ cells; 4.11523 ng/mL): 5900
Number of CD45RA− CD41− (Human mPB CD34+ cells; 12.34568 ng/mL): 7784
Number of CD45RA− CD41− (Human mPB CD34+ cells; 37.03704 ng/mL): 10500
Number of CD45RA− CD41− (Human mPB CD34+ cells; 111.11111 ng/mL): 12200
Number of CD45RA− CD41− (Human mPB CD34+ cells; 333.33333 ng/mL): 14100
Number of CD45RA− CD41− (Human mPB CD34+ cells; 1000 ng/mL): 13900

B2: bGCSF: bovine G-CSF (granulocyte colony-stimulating factor) (protein, listed as Bos taurus)
chain: TPLGPARSLPQSFLLKCLEQVRKIQADGAELQERLCAAHKLCHPEELMLLRHSLGIPQAPLSSCSSQSLQLTSCLNQLHGGLFLYQGLLQALAGISPELAPTLDTLQLDVTDFATNIWLQMEDLGAAPAVQPTQGAMPTFTSAFQRRAGGVLVASQLHRFLELAYRGLRYLAEP
modifications: bGCSF
F.I. (AlamarBlue fluorescence at 595 nm, cell viability) (Mouse NFS-60 cells; 0.09145 ng/mL): 1214
F.I. (AlamarBlue fluorescence at 595 nm, cell viability) (Mouse NFS-60 cells; 0.27435 ng/mL): 1360.925
F.I. (AlamarBlue fluorescence at 595 nm, cell viability) (Mouse NFS-60 cells; 0.82305 ng/mL): 1761
F.I. (AlamarBlue fluorescence at 595 nm, cell viability) (Mouse NFS-60 cells; 2.46914 ng/mL): 2101
F.I. (AlamarBlue fluorescence at 595 nm, cell viability) (Mouse NFS-60 cells; 7.40741 ng/mL): 2405
F.I. (AlamarBlue fluorescence at 595 nm, cell viability) (Mouse NFS-60 cells; 22.22222 ng/mL): 2646
F.I. (AlamarBlue fluorescence at 595 nm, cell viability) (Mouse NFS-60 cells; 66.66667 ng/mL): 2812.098
F.I. (AlamarBlue fluorescence at 595 nm, cell viability) (Mouse NFS-60 cells; 200 ng/mL): 3087.144
Number of CD45RA− CD41− (Human mPB CD34+ cells; 0.55886 ng/mL): 7354
Number of CD45RA− CD41− (Human mPB CD34+ cells; 1.67657 ng/mL): 9776
Number of CD45RA− CD41− (Human mPB CD34+ cells; 5.02972 ng/mL): 12700
Number of CD45RA− CD41− (Human mPB CD34+ cells; 15.08916 ng/mL): 13200
Number of CD45RA− CD41− (Human mPB CD34+ cells; 45.26749 ng/mL): 13700
Number of CD45RA− CD41− (Human mPB CD34+ cells; 135.80247 ng/mL): 13300
Number of CD45RA− CD41− (Human mPB CD34+ cells; 407.40741 ng/mL): 13700
Number of CD45RA− CD41− (Human mPB CD34+ cells; 1222.22222 ng/mL): 14100
Number of CD45RA− CD41− (Human mPB CD34+ cells; 3666.66667 ng/mL): 13100
Number of CD45RA− CD41− (Human mPB CD34+ cells; 11000 ng/mL): 13800
Percentage (normalized to maximal concentration at the first time point, 30 min) ([1]; 0.5 hour): 100.00%
Percentage (normalized to maximal concentration at the first time point, 30 min) ([1]; 1 hour): 79.52%
Percentage (normalized to maximal concentration at the first time point, 30 min) ([1]; 3 hour): 56.81%
Percentage (normalized to maximal concentration at the first time point, 30 min) ([1]; 6 hour): 14.94%
Percentage (normalized to maximal concentration at the first time point, 30 min) ([1]; 24 hour): 4.08%
Percentage (normalized to maximal concentration at the first time point, 30 min) ([1]; 48 hour): 0.00%
Percentage (normalized to maximal concentration at the first time point, 30 min) ([1]; 72 hour): 0.00%
Percentage of Neutrophil (mice neutrophils): 16.48

B3: BLV1H12-IL8: human IL-8 (amino acids 26-99) replacing the knob domain of BLV1H12; heavy chain variable region SEQ ID NO: 38 (antibody)
VH: QVQLRESGPSLVKPSQTLSLTCTASGFSLSDKAVGWVRQAPGKALEWLGSIDTGGNTGYNPGLKSRLSITKDNSKSQVSLSVSSVTTEDSATYYCTSVHQETKKYQSPRSAKELRCQCIKTYSKPFHPKFIKELRVIESGPHCANTEIIVKLSDGRELCLDPKENWVQRVVEKFLKRAENSGSGSYTYNYEWHVDVWGQGLLVTV
light: QAVLNQPSSVSGSLGQRVSITCSGSSSNVGNGYVSWYQLIPGSAPRTLIYGDTSRASGVPDRFSGSRSGNTATLTISSLQAEDEADYFCASAEDSSSNAVFGSGTTLTVLGQPKSPPSVTLFPPSTEELNGNKATLVCLISDFYPGSVTVVWKADGSTITRNVETTRASKQSNSKYAASSYLSLTSSDWKSKGSYSCEVTHEGSTVTKTVKPSECS
ratio of median fluorescence (IgG binding) of CXCR1-U2OS cells versus U2OS parental cells (CXCR1-U2OS): has specificity for CXCR1
Median Arbitrary Fluorescence Units (AFU) (CXCR1-U2OS; CXCR1-U2OS cells, cell culture supernatant containing expressed IgG, anti-Human Fc detection): 707 AFU
Median Arbitrary Fluorescence Units (AFU) (Parental U2OS): 76 AFU

B4: H12 (protein, listed as Bos taurus)
chain: CVIVHQKTTQQSSCPAGFRDCVACTPGPESCCRSGCDGARRRVGLRYFFDSTSPITTYTYEHHIDAW
modifications: H12
binding to HEK293A cells transfected with NS2-3 ([2]; HEK293A cells transfected with the NS2-3 non-structural proteins of BVDV): binds NS2-3 on cells; also recorded: strongly binds
binding to untransfected cells ([2]; untransfected HEK293A cells): weakly bound
